We go through three molecules from article PMC6144812.

Residue numbers refer to the chain shown, from its start. Bounds are passed on as bounds.

What all share (test): EMSA
(In general: A gel shift assay detects complexes by their altered migration in electrophoresis.)

Data set [1] deals with T1, nPfh1 (nuclear isoform, wild-type) (Schizosaccharomyces pombe, UniProt Q9UUA2-2 1-785).
T1 sequence: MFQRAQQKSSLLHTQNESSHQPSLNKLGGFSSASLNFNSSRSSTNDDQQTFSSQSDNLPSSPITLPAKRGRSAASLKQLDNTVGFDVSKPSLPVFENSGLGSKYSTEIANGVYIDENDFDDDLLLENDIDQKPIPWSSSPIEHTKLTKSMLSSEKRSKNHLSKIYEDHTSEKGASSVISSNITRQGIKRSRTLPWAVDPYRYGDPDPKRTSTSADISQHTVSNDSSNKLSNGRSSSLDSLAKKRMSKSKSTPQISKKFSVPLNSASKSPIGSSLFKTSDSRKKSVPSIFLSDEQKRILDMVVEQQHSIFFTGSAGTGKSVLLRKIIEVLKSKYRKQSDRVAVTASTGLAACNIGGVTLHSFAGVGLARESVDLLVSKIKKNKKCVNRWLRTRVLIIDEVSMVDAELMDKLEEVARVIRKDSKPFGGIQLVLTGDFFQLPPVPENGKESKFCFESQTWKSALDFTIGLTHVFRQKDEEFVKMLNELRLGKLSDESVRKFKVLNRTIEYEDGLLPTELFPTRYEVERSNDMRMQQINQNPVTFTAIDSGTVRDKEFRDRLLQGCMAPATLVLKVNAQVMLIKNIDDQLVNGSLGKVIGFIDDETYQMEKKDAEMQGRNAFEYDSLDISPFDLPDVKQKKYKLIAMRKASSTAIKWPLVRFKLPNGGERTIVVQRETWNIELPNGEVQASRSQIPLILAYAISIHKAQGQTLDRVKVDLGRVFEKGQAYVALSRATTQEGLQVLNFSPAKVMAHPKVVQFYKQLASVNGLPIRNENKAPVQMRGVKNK

Another data set deals with T2, nPfh1-Δ21 (Schizosaccharomyces pombe, UniProt Q9UUA2-2 1-785, del408-428).
T2 sequence: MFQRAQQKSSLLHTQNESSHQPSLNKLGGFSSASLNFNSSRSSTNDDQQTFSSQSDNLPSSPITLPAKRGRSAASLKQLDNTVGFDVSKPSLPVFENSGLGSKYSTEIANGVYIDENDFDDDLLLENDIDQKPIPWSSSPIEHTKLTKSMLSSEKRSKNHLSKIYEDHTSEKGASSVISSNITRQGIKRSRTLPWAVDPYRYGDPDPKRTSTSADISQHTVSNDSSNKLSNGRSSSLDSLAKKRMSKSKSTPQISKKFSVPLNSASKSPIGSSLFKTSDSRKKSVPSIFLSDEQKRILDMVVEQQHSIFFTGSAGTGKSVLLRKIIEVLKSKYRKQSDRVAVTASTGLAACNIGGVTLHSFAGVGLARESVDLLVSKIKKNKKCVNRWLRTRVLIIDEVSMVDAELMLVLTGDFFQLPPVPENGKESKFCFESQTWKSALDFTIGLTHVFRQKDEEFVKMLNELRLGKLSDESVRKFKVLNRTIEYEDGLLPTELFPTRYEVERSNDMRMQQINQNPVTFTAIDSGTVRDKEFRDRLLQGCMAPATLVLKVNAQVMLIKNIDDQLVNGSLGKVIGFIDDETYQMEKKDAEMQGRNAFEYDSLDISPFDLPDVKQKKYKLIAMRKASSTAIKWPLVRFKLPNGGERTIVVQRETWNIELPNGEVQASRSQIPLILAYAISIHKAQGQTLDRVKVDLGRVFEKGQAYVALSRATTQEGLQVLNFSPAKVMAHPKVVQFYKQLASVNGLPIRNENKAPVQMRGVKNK

The next data set has as its target T3, nPfh1-L430A (Schizosaccharomyces pombe, UniProt Q9UUA2-2 1-785, L410A).
T3 sequence: T1 sequence with L410A

The target in another data set is T4, nPfh1-L430P (Schizosaccharomyces pombe, UniProt Q9UUA2-2 1-785, L410P).
T4 sequence: T1 sequence with L410P

B1: Duplex DNA/DNA (dsDNA)
DNA 1: TTAAGCACGTCCGTACCATCGA
DNA 2: TCGATGGTACGGACGTGCTTAA
Turning to B1, the binding result in data set [1] is recorded as “no binding”.

B2: 3'-5' DNA/DNA partial duplex (dsDNA)
DNA 1: TCGATGGTACGGACGTGCTTAAAGAAAAAAAAAA
DNA 2: TCGATGGTACGGACGTGCTTAA
Consider B2, for which the binding result in data set [1] is “no binding”.

B3: Y-fork (dsDNA)
DNA 1: AAAAAAAAAAGATTAAGCACGTCCGTACCATCGA
DNA 2: B2 DNA 1
B3: the binding signal with nPfh1-Δ21, with nPfh1-L430A and with nPfh1-L430P was less than 5 % bound throughout.
